The source of these data is patent publication US20190016822A1 (MEDITOPE BIOSCIENCES, published 2019).

Series [1] deals with the molecule itself. Description: size-exclusion chromatography; self-crosslinking.
Series [2] concerns the molecule itself. Description: size-exclusion chromatography; self-association. In general terms: SEC sorts molecules by how far they enter the pores of the column.

B1: SnAP-body variant 1 (anti-CD33) (antibody, human IgG1, kappa)
heavy: not shown
light: QIVLTQSPAIMSASPGEKVTITCSASSSISYMHWFQQRTNGSPRLWIYTTSNLASGVPARFSGSGSGTSYSLTISRMEAEDEADYYCHQRSTYPLTFGAGTKLELKRTVAAPSVFIFPPSDEQLKSGTASVVCLLNNFYPREAKVQWKVDNALQSGNSQESVTEQDSKDSTYSLSSTLTLSKADYEKHKVYACEVTHQGLSSPVTKSFNRGEC
notes: also called self-crosslinking antibody; Anti-CD33 SnAP-body variant 1
Consider B1, for which, in series [1], the binding result is recorded as “binds”.

B2: control antibody (meditope-enabled gemtuzumab IgG1 without meditope or linker) (antibody)
heavy: not shown
light: B1 light
notes: IgG1; also called control gemtuzumab antibody; gemtuzumab control antibody
As to B2, the binding result in series [2] was “no binding”.

B3: SnAP-body variant 2 (anti-CD33) (antibody, human IgG1, kappa)
heavy: not shown
light: B1 light
notes: also called self-crosslinking antibody; Anti-CD33 SnAP-body variant 2
For the protein B3, the binding result in series [1] was “binds”.

B4: SnAP-body variant 3 (anti-CD33) (antibody, human IgG1, kappa)
heavy: not shown
light: B1 light
notes: also called self-crosslinking antibody
With B4, the binding result in series [1] is on record as “binds”.
